Data from patent US9187525B2, “Methods of treating ophthalmic diseases using NPR-B agonists” (Shire Orphan Therapies GmbH, dated 2015).
Numbered stars: 1 amine (or outer) side, 2 acyl side, 3 side chain; on linkers, the order of the positions; unused ones are H or OH. Square brackets hold non-standard residues; d marks the D form. Ends that are not written are not given here. * marks the point of attachment. Nbhp = rac-(2,3-dihydroxy-propylamino)-acetic acid, O=C(CN(CC(O)CO[*:3])[*:1])[*:2]; Nhpr = (3-hydroxy-propylamino)acetic acid, O=C(CN(CCCO[*:3])[*:1])[*:2]; Gluc‑Aoa = (2,3,4,5,6-pentahydroxyhexylidenaminooxy)-acetic acid; Pro(trans-4-NH2) = O=C([C@@H]1C[C@@H](N[*:3])CN1[*:1])[*:2]; Sni = (S)-nipecotic acid, O=C([C@H]1CCCN([*:1])C1)[*:2]; Hyp = O=C(O)[C@@H]1C[C@@H](O)CN1; dAoc(2) = CCCCCC[C@@H](N)C(=O)O; Aoc(2) = CCCCCC[C@H](N)C(=O)O; NMeL = CN[C@@H](CC(C)C)C(=O)O; d(hSer) = N[C@H](CCO)C(=O)O; lys(Me2) = not defined here; orn(Me2) = not defined here; dDab = NCC[C@@H](N)C(=O)O; Octanoyl = CCCCCCCC(=O)*; 1270 = not defined here; 1888 = not defined here; 1913 = not defined here; Adx = not defined here; Che = not defined here; Oct = not defined here; leu = not defined here; thz = not defined here; Occ = octanoic acid

B1: JAL-1845 (peptide)
peptide: [Occ][Sni]F[orn(Me2)]L[Hyp][NMeL]VP[Che]
modifications: reading uncertain; also: printed as Occ-Sni-Phe-orn(Me2)-Leu-Hyp-Nml-Val-Pro-Che
B2: JAL-1805 (peptide)
peptide: 1270-[Aoc(2)][Sni]FLL[Hyp][NMeL]DRI-NH2
modifications: not fully specified (some residues); printed as (1270)-Hgl-Sni-Phe-leu-Leu-Hyp-Nml-Asp-Arg-Ile-NH2; reading uncertain
B3: JAL-1804 (peptide)
peptide: 1913-[Aoc(2)][Sni]FLL[Hyp][NMeL]DRI-NH2
modifications: not fully specified (some residues); printed as (1913)-Hgl-Sni-Phe-leu-Leu-Hyp-Nml-Asp-Arg-Ile-NH2; reading uncertain
B4: JAL-1802 (peptide)
peptide: {Gluc‑Aoa}-[Aoc(2)][Sni]FLL[Hyp][NMeL]DRI-NH2
modifications: not fully specified (some residues); printed as Gluc-Aoa-Hgl-Sni-Phe-leu-Leu-Hyp-Nml-Asp-Arg-Ile-NH2
B5: JAL-1846 (peptide)
peptide: [Occ][Sni]F[orn(Me2)]L[Pro(trans-4-NH2)][NMeL]VP[Che]
modifications: reading uncertain; also: printed as Occ-Sni-Phe-orn(Me2)-Leu-Tap-Nml-Val-Pro-Che
B6: JAL-1847 (peptide)
peptide: [Oct][Sni]F[orn(Me2)]L[Hyp][NMeL]VP[Che]
modifications: reading uncertain; also: printed as Oct-Sni-Phe-orn(Me2)-Leu-Hyp-Nml-Val-Pro-Che
B7: JAL-1838 (peptide)
peptide: H-[Adx][dAoc(2)][Sni]F[leu]L[Hyp][NMeL]DRI-NH2
modifications: reading uncertain; also: printed as H-Adx-hgl-Sni-Phe-leu-Leu-Hyp-Nml-Asp-Arg-Ile-NH2
B8: JAL-1798 (peptide)
peptide: Octanoyl-[Nhpr]FLL[Hyp][NMeL]DRI-NH2
modifications: not fully specified (some residues); printed as Occ-Nhpr-Phe-leu-Leu-Hyp-Nml-Asp-Arg-Ile-NH2
B9: JAL-1779 (peptide)
peptide: Octanoyl-[Sni]F[lys(Me2)]L[Hyp][NMeL]VR[Che]
modifications: reading uncertain; also: printed as Occ-Sni-Phe-lys(Me2)-Leu-Hyp-Nml-Val-Arg-Che
B10: JAL-1781 (peptide)
peptide: Octanoyl-[Sni]F[lys(Me2)]L[Hyp][NMeL]DRI-NH2
modifications: reading uncertain; also: printed as Occ-Sni-Phe-lys(Me2)-Leu-Hyp-Nml-Asp-Arg-Ile-NH2
B11: JAL-1801 (peptide)
peptide: Octanoyl-[d(hSer)]FLL[Hyp][NMeL]DRI-NH2
modifications: not fully specified (some residues); printed as Occ-hse-Phe-leu-Leu-Hyp-Nml-Asp-Arg-Ile-NH2
B12: JAL-1837 (peptide)
peptide: 1888-[dAoc(2)][Sni]FLL[Hyp][NMeL]DRI-NH2
modifications: not fully specified (some residues); printed as 1888-hgl-Sni-Phe-leu-Leu-Hyp-Nml-Asp-Arg-Ile-NH2; reading uncertain
B13: JAL-1808 (peptide)
peptide: H-[Adx][Aoc(2)][Sni]FLL[Hyp][NMeL]DRI-NH2
modifications: not fully specified (residue 5); printed as H-Adx-Hgl-Sni-Phe-leu-Leu-Hyp-Nml-Asp-Arg-Ile-NH2; reading uncertain
B14: JAL-1803 (peptide)
peptide: {Gluc‑Aoa}-[dAoc(2)][Sni]FLL[Hyp][NMeL]DRI-NH2
modifications: not fully specified (some residues); printed as Gluc-Aoa-hgl-Sni-Phe-leu-Leu-Hyp-Nml-Asp-Arg-Ile-NH2
B15: JAL-1807 (peptide)
peptide: Octanoyl-[Aoc(2)][Sni]FLL[Hyp][NMeL]DRI-NH2
modifications: not fully specified (some residues); printed as Occ-Hgl-Sni-Phe-leu-Leu-Hyp-Nml-Asp-Arg-Ile-NH2
B16: JAL-1800 (peptide)
peptide: Octanoyl-SFLL[Hyp][NMeL]DRI-NH2
modifications: not fully specified (some residues); printed as Occ-ser-Phe-leu-Leu-Hyp-Nml-Asp-Arg-Ile-NH2
B17: JAL-1782 (peptide)
peptide: Octanoyl-[Sni]F[orn(Me2)]L[Hyp][NMeL]VRI-NH2
modifications: reading uncertain; also: printed as Occ-Sni-Phe-orn(Me2)-Leu-Hyp-Nml-Val-Arg-Ile-NH2
B18: JAL-1799 (peptide)
peptide: Octanoyl-[Nbhp]FLL[Hyp][NMeL]DRI-NH2
modifications: not fully specified (some residues); printed as Occ-Nbhp-Phe-leu-Leu-Hyp-Nml-Asp-Arg-Ile-NH2
B19: JAL-1806 (peptide)
peptide: 1888-[Aoc(2)][Sni]FLL[Hyp][NMeL]DRI-NH2
modifications: not fully specified (some residues); printed as (1888)-Hgl-Sni-Phe-leu-Leu-Hyp-Nml-Asp-Arg-Ile-NH2; reading uncertain
B20: JAL-1784 (peptide)
peptide: Octanoyl-[Sni]F[dDab](Me2)L[Hyp][NMeL]VR[Che]
modifications: reading uncertain; also: printed as Occ-Sni-Phe-dab(Me2)-Leu-Hyp-Nml-Val-Arg-Che

Biological target: T1, natriuretic peptide receptor-B (human)
T1 chain: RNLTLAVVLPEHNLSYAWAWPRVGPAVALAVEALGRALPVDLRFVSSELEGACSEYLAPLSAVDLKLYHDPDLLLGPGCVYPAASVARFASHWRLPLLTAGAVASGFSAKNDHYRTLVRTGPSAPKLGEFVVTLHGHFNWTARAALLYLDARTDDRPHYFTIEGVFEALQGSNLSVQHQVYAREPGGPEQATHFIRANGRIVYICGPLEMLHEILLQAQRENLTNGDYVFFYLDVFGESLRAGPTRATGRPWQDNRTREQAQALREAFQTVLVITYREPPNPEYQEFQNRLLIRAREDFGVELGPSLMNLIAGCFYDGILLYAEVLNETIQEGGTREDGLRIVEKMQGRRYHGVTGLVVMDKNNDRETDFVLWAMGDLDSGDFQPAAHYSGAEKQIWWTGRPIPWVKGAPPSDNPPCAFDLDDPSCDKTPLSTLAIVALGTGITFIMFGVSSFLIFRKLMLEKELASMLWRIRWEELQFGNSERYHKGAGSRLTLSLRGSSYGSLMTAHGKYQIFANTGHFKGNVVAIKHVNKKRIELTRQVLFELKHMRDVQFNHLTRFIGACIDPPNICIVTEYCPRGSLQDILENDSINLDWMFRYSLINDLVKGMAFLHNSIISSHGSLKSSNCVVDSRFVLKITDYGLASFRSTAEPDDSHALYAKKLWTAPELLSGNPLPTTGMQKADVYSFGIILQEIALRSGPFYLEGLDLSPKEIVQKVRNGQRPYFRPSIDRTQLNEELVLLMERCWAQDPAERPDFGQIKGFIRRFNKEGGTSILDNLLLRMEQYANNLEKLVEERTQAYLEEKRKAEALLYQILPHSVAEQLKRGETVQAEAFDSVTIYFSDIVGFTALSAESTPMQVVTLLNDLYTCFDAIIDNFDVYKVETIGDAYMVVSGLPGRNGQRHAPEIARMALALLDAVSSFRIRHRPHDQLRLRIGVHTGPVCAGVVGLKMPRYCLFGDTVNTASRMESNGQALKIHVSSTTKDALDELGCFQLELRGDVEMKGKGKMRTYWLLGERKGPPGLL
Assay: cell-based or functional assay

[Oct][Sni]F[leu]L[Pro(trans-4-NH2)][NMeL]VP[Che] (reading uncertain; also: printed as Oct-Sni-Phe-leu-Leu-Tap-Nml-Val-Pro-Che) [JAL-1844] and B1 cannot be ordered by “EC50 group, cGMP in GTM-3 cells” value: ≤ 5 µM for the first, ≤ 5 µM for the second.

B2 and B3 cannot be ordered by “EC50 group, cGMP in GTM-3 cells” value: ≤ 15 µM for the first, ≤ 5 µM for the second.

Octanoyl-[Sni]F[dDab](Me2)L[Hyp][NMeL]DRI-NH2 [JAL-1785] and Octanoyl-[dA]FGLKLDRI-NH2 [JAL-0738] cannot be ordered by “EC50 group, cGMP in GTM-3 cells” value: ≤ 1 µM for the first, ≤ 15 µM for the second.

B4 and B5 cannot be ordered by “EC50 group, cGMP in GTM-3 cells” value: ≤ 5 µM for the first, ≤ 5 µM for the second.

B6 and Octanoyl-[thz]FGLKLDRI-NH2 (reading uncertain; also: printed as Occ-thz-Phe-Gly-Leu-Lys-Leu-Asp-Arg-Ile-NH2) [JAL-0739] cannot be ordered by “EC50 group, cGMP in GTM-3 cells” value: ≤ 15 µM for the first, ≤ 15 µM for the second.

Octanoyl-[Sni]F[dDab](Me2)L[Hyp][NMeL]VRI-NH2 [JAL-1786] and B7 cannot be ordered by “EC50 group, cGMP in GTM-3 cells” value: ≤ 5 µM for the first, ≤ 5 µM for the second.

[Oct][Sni]F[leu]L[Pro(trans-4-NH2)][NMeL]DR[Che] (reading uncertain; also: printed as Oct-Sni-Phe-leu-Leu-Tap-Nml-Asp-Arg-Che) [JAL-1843] and B8 cannot be ordered by “EC50 group, cGMP in GTM-3 cells” value: ≤ 1 µM for the first, ≤ 5 µM for the second.

B9 and Octanoyl-[Sni]F[dK](Me2)L[Hyp][NMeL]VRI-NH2 [JAL-1783] cannot be ordered by “EC50 group, cGMP in GTM-3 cells” value: ≤ 1 µM for the first, ≤ 15 µM for the second.

B10 and B11 cannot be ordered by “EC50 group, cGMP in GTM-3 cells” value: ≤ 5 µM for the first, ≤ 5 µM for the second.

B12 and B13 cannot be ordered by “EC50 group, cGMP in GTM-3 cells” value: ≤ 5 µM for the first, ≤ 1 µM for the second.

B14 and B15 cannot be ordered by “EC50 group, cGMP in GTM-3 cells” value: ≤ 1 µM for the first, ≤ 15 µM for the second.

B16 and B17 cannot be ordered by “EC50 group, cGMP in GTM-3 cells” value: ≤ 5 µM for the first, ≤ 1 µM for the second.

B18 and B19 cannot be ordered by “EC50 group, cGMP in GTM-3 cells” value: ≤ 5 µM for the first, ≤ 5 µM for the second.

In the case of B20, the “EC50 group, cGMP in GTM-3 cells” value is reported as ≤ 1 µM.
